The supplement of paper PMC9112550, “Optimization of the antimicrobial peptide Bac7 by deep mutational scanning” (BMC Biology, 2022)

system: Escherichia coli TOP10; experiment: shrunken log2 fold change of peptide-encoding DNA abundance (4.5 h post-induction vs induction); higher = less antimicrobial activity (less host growth inhibition); details: time post-induction: 4.5 h; library: site-saturation at positions 5, 18, 19, 20
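Note: peptides expressed intracellularly from a pBAD plasmid library in pooled LB shake-flask culture, induced with 0.3% L-arabinose, DNA abundance read by NGS, three biological replicates, DESeq2 with apeglm shrinkage.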

Sequence | shrunken log2 fold change
RRIRSRPPRLPRPRPRPMVNPRP | 0.00321
RRIRARPPRLPRPRPRPLYLPRP | -0.367
RRIRSRPPRLPRPRPRPEGYPRP | -0.0595
RRIRFRPPRLPRPRPRPGIIPRP | -0.139
RRIRPRPPRLPRPRPRPASCPRP | 0.186
RRIRHRPPRLPRPRPRPVTQPRP | -0.296
RRIRSRPPRLPRPRPRPYLDPRP | -0.175
RRIRWRPPRLPRPRPRPSVVPRP | -0.00267
RRIRKRPPRLPRPRPRPPELPRP | 0.23
RRIRRRPPRLPRPRPRPAIWPRP | 0.356
RRIRFRPPRLPRPRPRPQCRPRP | -0.218
RRIRVRPPRLPRPRPRPVVDPRP | -0.0784
RRIRARPPRLPRPRPRPLSLPRP | -0.0486
RRIRGRPPRLPRPRPRPCCMPRP | 0.474
RRIRDRPPRLPRPRPRPLTLPRP | -0.0246
RRIRCRPPRLPRPRPRPAHEPRP | 0.238
RRIRMRPPRLPRPRPRPNEWPRP | 0.23
RRIRHRPPRLPRPRPRPHSGPRP | -0.487
RRIRMRPPRLPRPRPRPGFYPRP | 0.0157
RRIRERPPRLPRPRPRPDARPRP | -0.0768
RRIRARPPRLPRPRPRPPFYPRP | 0.14
RRIRPRPPRLPRPRPRPKHTPRP | -0.198

Sequence | shrunken log2 fold change
RRIRDRPPRLPRPRPRPSHHPRP | -0.344
RRIRFRPPRLPRPRPRPRRVPRP | 0.258
RRIRGRPPRLPRPRPRPVKQPRP | 0.216
RRIRSRPPRLPRPRPRPNSQPRP | -0.118
RRIRCRPPRLPRPRPRPNHYPRP | -0.825
RRIRERPPRLPRPRPRPMKVPRP | -0.0915
RRIRGRPPRLPRPRPRPNLHPRP | 0.303
RRIRERPPRLPRPRPRPGKVPRP | 0.206
RRIRERPPRLPRPRPRPNNFPRP | -0.0786
RRIRCRPPRLPRPRPRPFWDPRP | 0.00555
RRIRIRPPRLPRPRPRPHIGPRP | -0.17
RRIRIRPPRLPRPRPRPLKMPRP | -0.245
RRIRHRPPRLPRPRPRPDWFPRP | -0.00508
RRIRRRPPRLPRPRPRPRPKPRP | 1.05
RRIRVRPPRLPRPRPRPWIKPRP | 0.0141
RRIRCRPPRLPRPRPRPCARPRP | 0.174
RRIRGRPPRLPRPRPRPQAGPRP | 0.695
RRIRVRPPRLPRPRPRPEKGPRP | -0.09
RRIRRRPPRLPRPRPRPAYCPRP | 0.0506
RRIRGRPPRLPRPRPRPCSTPRP | 1.14
RRIRSRPPRLPRPRPRPCYLPRP | -0.586
RRIRMRPPRLPRPRPRPQMEPRP | 0.0809

Sequence | shrunken log2 fold change
RRIRTRPPRLPRPRPRPRDIPRP | -0.0222
RRIRDRPPRLPRPRPRPMQFPRP | -0.0264
RRIRCRPPRLPRPRPRPFITPRP | -0.639
RRIRTRPPRLPRPRPRPPSAPRP | 0.442
RRIRWRPPRLPRPRPRPQLMPRP | 0.13
RRIRKRPPRLPRPRPRPWAYPRP | -0.228
RRIRARPPRLPRPRPRPIDKPRP | 0.236
RRIRDRPPRLPRPRPRPWDTPRP | -0.029
RRIRSRPPRLPRPRPRPISFPRP | -0.216
RRIRCRPPRLPRPRPRPEIVPRP | -0.221
RRIRIRPPRLPRPRPRPLFCPRP | -0.517
RRIRYRPPRLPRPRPRPRCDPRP | -0.207
RRIRFRPPRLPRPRPRPWFEPRP | -0.0653
RRIRERPPRLPRPRPRPHHSPRP | -0.603
RRIRWRPPRLPRPRPRPVMEPRP | 0.0979
RRIRERPPRLPRPRPRPVSQPRP | -0.0404
RRIRSRPPRLPRPRPRPKISPRP | 0.0778
RRIRMRPPRLPRPRPRPRSTPRP | 0.888
RRIRWRPPRLPRPRPRPPDVPRP | 0.235
RRIRDRPPRLPRPRPRPDVYPRP | -0.00822
RRIRNRPPRLPRPRPRPFHPPRP | 0.0752
RRIRIRPPRLPRPRPRPWVCPRP | 0.0551

Sequence | shrunken log2 fold change
RRIRYRPPRLPRPRPRPIYNPRP | 0.36
RRIRTRPPRLPRPRPRPFWMPRP | -0.111
RRIRCRPPRLPRPRPRPEINPRP | 0.122
RRIRWRPPRLPRPRPRPQHSPRP | -0.186
RRIRTRPPRLPRPRPRPCNVPRP | -0.00968
RRIRRRPPRLPRPRPRPVEIPRP | 0.048
RRIRCRPPRLPRPRPRPPYAPRP | 0.141
RRIRLRPPRLPRPRPRPHCMPRP | -0.283
RRIRMRPPRLPRPRPRPFVNPRP | 1.6
RRIRHRPPRLPRPRPRPTIRPRP | -0.689
RRIRSRPPRLPRPRPRPIPMPRP | -0.0186
RRIRLRPPRLPRPRPRPGEQPRP | 0.0657
RRIRHRPPRLPRPRPRPTLMPRP | -0.0715
RRIRWRPPRLPRPRPRPDSDPRP | 0.0473
RRIRERPPRLPRPRPRPEQRPRP | 0.32
RRIRSRPPRLPRPRPRPNNDPRP | -0.503
RRIRVRPPRLPRPRPRPMLLPRP | -0.322
RRIRDRPPRLPRPRPRPDSKPRP | 0.0365
RRIRTRPPRLPRPRPRPEQNPRP | 0.189
RRIRFRPPRLPRPRPRPVRLPRP | 0.0919
RRIRYRPPRLPRPRPRPRQYPRP | 0.0153
RRIRDRPPRLPRPRPRPQSYPRP | -0.495

Sequence | shrunken log2 fold change
RRIRQRPPRLPRPRPRPPMHPRP | 0.277
RRIRSRPPRLPRPRPRPLLGPRP | 0.0218
RRIRGRPPRLPRPRPRPSQIPRP | -0.111
RRIRSRPPRLPRPRPRPDQIPRP | 0.0424
RRIRFRPPRLPRPRPRPYESPRP | 0.0128
RRIRKRPPRLPRPRPRPMTNPRP | 0.184
RRIRDRPPRLPRPRPRPTHNPRP | -0.00516
RRIRIRPPRLPRPRPRPCPEPRP | -0.644
RRIRVRPPRLPRPRPRPFHIPRP | -0.527
RRIRWRPPRLPRPRPRPNTMPRP | -0.301
RRIRPRPPRLPRPRPRPMLWPRP | 0.172
RRIRVRPPRLPRPRPRPCNWPRP | -0.327
RRIRFRPPRLPRPRPRPTVLPRP | -0.0624
RRIRCRPPRLPRPRPRPNTMPRP | -0.682
RRIRQRPPRLPRPRPRPMNGPRP | -0.0825
RRIRDRPPRLPRPRPRPFPRPRP | -0.135
RRIRSRPPRLPRPRPRPGADPRP | 0.463
RRIRERPPRLPRPRPRPQDYPRP | -0.091
RRIRNRPPRLPRPRPRPKPVPRP | 0.24
RRIRDRPPRLPRPRPRPMNFPRP | -0.285
RRIRHRPPRLPRPRPRPIGVPRP | 0.148
